Measurements as given in US20150344570A1 (published 2015).

T1: FcγRIIb extracellular domain with C-terminal His tag (human, UniProt P31994 43-217)
T1 construct: extracellular domain; also called FcgRIIb; 2b; not shown: His tag at the C terminus
T1 sequence (looked up): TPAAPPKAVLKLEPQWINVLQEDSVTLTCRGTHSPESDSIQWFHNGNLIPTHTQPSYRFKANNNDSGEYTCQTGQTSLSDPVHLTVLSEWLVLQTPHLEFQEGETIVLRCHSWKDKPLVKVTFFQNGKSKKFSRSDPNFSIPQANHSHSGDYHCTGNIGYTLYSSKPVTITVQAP

T2: FcγRIIa H (FcγRIIa type H, His at position 131), extracellular domain with C-terminal His tag (human, UniProt P12318 34-217)
T2 construct: extracellular domain; also called FcgRIIa H; 2aH
T2 sequence (looked up): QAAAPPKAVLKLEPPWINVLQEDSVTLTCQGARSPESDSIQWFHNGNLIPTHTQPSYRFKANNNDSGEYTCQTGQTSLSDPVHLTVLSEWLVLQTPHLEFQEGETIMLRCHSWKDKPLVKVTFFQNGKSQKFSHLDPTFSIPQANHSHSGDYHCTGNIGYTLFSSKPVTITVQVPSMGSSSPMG

B1: GpH7-B3 variant K326_07I/GpL16-k0 (antibody, human IgG1, kappa)
heavy: not shown
light: DIVMTQSPLSLPVTPGEPASISCQASESLVHSNRNTYLHWYLQKPGQSPQLLIYKVSNRFSGVPDRFSGSGSGTDFTLKISRVEAEDVGVYYCSQNTHVPPTFGQGTKVEIERTVAAPSVFIFPPSDEQLKSGTASVVCLLNNFYPREAKVQWKVDNALQSGNSQESVTEQDSKDSTYSLSSTLTLSKADYEKHKVYACEVTHQGLSSPVTKSFNRGEC
notes: also called Ho Ab K326_07I
B2: GpH7-B3 variant A327_09D/GpL16-k0 (antibody, human IgG1, kappa)
heavy: not shown
light: B1 light
notes: also called Ho Ab A327_09D
B3: GpH7-B3 variant A327_10E/GpL16-k0 (antibody, human IgG1, kappa)
heavy: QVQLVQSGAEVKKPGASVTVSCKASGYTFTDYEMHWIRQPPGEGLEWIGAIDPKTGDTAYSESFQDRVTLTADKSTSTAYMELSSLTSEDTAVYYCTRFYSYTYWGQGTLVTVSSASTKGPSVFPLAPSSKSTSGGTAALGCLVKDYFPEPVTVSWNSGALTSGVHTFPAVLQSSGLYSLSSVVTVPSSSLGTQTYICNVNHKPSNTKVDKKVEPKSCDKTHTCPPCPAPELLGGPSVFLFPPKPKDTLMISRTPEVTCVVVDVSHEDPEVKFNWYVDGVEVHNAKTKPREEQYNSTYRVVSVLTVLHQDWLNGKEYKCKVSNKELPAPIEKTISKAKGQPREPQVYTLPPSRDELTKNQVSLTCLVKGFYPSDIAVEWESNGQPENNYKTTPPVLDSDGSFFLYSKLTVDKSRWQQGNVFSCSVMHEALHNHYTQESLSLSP
light: B1 light
notes: also called Ho Ab A327_10E
B4: GpH7-B3 variant A330_01G/GpL16-k0 (antibody, human IgG1, kappa)
heavy: not shown
light: B1 light
notes: also called Ho Ab A330_01G
B5: GpH7-B3 variant G236_09D/GpL16-k0 (antibody, human IgG1, kappa)
heavy: not shown
light: B1 light
notes: also called Ho Ab G236_09D
B6: GpH7-B3 variant G236_10E/GpL16-k0 (antibody, human IgG1, kappa)
heavy: not shown
light: B1 light
notes: also called Ho Ab G236_10E
B7: GpH7-B3 variant G237_04F/GpL16-k0 (antibody, human IgG1, kappa)
heavy: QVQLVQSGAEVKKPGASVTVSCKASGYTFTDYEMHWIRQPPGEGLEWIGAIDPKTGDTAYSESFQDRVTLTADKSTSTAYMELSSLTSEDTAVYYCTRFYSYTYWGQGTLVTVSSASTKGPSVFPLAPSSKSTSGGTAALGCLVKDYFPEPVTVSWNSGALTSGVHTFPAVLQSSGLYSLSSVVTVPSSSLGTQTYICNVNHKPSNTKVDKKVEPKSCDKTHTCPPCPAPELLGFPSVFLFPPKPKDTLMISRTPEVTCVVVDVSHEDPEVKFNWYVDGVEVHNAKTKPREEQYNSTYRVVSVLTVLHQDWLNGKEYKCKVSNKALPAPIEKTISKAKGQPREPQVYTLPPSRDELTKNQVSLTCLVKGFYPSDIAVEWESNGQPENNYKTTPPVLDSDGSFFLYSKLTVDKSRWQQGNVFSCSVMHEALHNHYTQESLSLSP
light: B1 light
notes: also called Ho Ab G237_04F
B8: GpH7-B3 variant G237_20W/GpL16-k0 (antibody, human IgG1, kappa)
heavy: not shown
light: B1 light
notes: also called Ho Ab G237_20W
B9: GpH7-B3 variant H268_01G/GpL16-k0 (antibody, human IgG1, kappa)
heavy: not shown
light: B1 light
notes: also called Ho Ab H268_01G
B10: GpH7-B3 variant H268_09D/GpL16-k0 (antibody, human IgG1, kappa)
heavy: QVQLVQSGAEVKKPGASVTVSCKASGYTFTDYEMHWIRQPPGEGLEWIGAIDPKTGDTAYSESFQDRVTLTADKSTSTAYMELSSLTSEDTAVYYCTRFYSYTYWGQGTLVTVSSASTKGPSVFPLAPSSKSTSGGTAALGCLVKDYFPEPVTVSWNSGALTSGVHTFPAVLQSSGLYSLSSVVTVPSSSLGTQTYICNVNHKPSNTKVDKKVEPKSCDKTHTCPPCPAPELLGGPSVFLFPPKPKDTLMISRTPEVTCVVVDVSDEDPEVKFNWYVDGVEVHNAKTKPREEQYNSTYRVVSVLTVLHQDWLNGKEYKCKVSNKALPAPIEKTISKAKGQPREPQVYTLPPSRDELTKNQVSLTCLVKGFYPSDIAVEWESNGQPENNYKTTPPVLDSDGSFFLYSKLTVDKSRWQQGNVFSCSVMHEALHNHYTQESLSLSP
light: B1 light
notes: also called Ho Ab H268_09D
B11: GpH7-B3 variant H268_10E/GpL16-k0 (antibody, human IgG1, kappa)
heavy: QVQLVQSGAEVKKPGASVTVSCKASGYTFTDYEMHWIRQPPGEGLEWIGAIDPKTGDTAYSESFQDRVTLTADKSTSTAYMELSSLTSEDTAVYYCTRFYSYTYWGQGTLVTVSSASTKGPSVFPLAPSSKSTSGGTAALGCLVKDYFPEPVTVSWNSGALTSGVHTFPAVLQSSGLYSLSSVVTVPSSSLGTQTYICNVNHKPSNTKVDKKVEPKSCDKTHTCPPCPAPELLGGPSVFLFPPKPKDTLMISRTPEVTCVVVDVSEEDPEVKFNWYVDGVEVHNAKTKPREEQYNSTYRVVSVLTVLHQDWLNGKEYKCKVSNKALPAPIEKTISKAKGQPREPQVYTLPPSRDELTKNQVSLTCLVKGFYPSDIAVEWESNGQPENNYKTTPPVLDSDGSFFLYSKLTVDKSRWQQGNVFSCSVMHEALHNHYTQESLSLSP
light: B1 light
notes: also called Ho Ab H268_10E
B12: GpH7-B3 variant H268_13S/GpL16-k0 (antibody, human IgG1, kappa)
heavy: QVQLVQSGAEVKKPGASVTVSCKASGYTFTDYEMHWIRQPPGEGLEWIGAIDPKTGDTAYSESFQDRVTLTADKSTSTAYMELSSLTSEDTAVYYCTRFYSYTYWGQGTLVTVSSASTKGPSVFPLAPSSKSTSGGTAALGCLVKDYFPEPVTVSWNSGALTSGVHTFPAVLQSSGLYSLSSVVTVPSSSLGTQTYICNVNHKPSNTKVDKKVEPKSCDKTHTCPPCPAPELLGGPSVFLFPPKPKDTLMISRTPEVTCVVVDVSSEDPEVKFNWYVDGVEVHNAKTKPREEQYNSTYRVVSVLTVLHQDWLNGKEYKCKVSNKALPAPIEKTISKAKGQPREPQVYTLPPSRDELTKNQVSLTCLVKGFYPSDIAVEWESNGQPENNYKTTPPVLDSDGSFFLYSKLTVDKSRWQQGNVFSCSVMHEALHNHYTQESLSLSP
light: B1 light
notes: also called Ho Ab H268_13S
B13: GpH7-B3 variant H268_18N/GpL16-k0 (antibody, human IgG1, kappa)
heavy: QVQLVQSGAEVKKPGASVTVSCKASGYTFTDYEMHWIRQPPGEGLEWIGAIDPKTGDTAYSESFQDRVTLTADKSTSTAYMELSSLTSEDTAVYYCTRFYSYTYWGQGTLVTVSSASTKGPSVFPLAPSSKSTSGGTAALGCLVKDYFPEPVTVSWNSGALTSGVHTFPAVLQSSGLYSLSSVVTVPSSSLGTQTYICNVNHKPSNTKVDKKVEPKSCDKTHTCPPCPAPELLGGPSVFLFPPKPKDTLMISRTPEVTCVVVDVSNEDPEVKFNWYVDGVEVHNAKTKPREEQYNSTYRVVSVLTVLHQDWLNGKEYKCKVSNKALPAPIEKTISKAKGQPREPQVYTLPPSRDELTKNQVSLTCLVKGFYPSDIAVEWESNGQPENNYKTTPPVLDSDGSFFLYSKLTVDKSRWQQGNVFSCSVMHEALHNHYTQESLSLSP
light: B1 light
notes: also called Ho Ab H268_18N
B14: GpH7-B3 variant I332_04F/GpL16-k0 (antibody, human IgG1, kappa)
heavy: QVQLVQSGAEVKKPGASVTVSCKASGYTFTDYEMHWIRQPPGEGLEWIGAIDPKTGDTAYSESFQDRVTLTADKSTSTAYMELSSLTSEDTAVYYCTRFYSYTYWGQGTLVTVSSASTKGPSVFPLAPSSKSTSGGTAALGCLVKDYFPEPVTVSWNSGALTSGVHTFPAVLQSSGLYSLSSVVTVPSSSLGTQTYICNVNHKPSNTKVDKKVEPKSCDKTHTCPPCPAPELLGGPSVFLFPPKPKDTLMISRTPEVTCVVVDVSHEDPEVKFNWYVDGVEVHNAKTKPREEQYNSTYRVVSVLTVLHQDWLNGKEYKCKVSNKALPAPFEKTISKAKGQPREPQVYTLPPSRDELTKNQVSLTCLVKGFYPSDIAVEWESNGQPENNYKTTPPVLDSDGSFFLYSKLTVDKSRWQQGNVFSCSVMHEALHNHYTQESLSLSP
light: B1 light
notes: also called Ho Ab I332_04F
B15: GpH7-B3 variant I332_06M/GpL16-k0 (antibody, human IgG1, kappa)
heavy: not shown
light: B1 light
notes: also called Ho Ab I332_06M
B16: GpH7-B3 variant I332_09D/GpL16-k0 (antibody, human IgG1, kappa)
heavy: not shown
light: B1 light
notes: also called Ho Ab I332_09D
B17: GpH7-B3 variant I332_10E/GpL16-k0 (antibody, human IgG1, kappa)
heavy: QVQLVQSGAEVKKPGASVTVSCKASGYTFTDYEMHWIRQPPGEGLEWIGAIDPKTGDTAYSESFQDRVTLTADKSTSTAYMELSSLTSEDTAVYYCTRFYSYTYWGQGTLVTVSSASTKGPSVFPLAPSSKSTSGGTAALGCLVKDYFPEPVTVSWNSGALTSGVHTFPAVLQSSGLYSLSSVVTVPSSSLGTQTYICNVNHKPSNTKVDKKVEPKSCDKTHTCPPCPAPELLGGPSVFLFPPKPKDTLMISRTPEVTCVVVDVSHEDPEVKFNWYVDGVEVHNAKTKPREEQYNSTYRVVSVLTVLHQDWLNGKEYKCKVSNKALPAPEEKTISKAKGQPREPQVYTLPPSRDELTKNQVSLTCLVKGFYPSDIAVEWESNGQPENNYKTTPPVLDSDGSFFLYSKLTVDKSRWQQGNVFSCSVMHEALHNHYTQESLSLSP
light: B1 light
notes: also called Ho Ab I332_10E
B18: GpH7-B3 variant I332_14T/GpL16-k0 (antibody, human IgG1, kappa)
heavy: not shown
light: B1 light
notes: also called Ho Ab I332_14T
B19: GpH7-B3 variant I332_15Y/GpL16-k0 (antibody, human IgG1, kappa)
heavy: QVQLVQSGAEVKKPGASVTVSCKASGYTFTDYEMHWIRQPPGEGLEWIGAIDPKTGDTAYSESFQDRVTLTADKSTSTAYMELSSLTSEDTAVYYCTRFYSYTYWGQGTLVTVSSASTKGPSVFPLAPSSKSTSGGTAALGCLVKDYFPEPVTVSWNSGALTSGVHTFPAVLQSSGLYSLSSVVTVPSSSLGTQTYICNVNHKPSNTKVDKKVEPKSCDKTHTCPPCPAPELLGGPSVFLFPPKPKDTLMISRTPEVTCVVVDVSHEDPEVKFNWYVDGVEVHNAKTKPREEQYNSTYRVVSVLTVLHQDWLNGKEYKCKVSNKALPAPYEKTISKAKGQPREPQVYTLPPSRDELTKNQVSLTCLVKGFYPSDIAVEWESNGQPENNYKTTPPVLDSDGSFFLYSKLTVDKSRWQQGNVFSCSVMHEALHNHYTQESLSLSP
light: B1 light
notes: also called Ho Ab I332_15Y
B20: GpH7-B3 variant I336_08L/GpL16-k0 (antibody, human IgG1, kappa)
heavy: not shown
light: B1 light
notes: also called Ho Ab I336_08L
B21: GpH7-B3 variant K326_03V/GpL16-k0 (antibody, human IgG1, kappa)
heavy: not shown
light: B1 light
notes: also called Ho Ab K326_03V
B22: GpH7-B3 variant K326_04F/GpL16-k0 (antibody, human IgG1, kappa)
heavy: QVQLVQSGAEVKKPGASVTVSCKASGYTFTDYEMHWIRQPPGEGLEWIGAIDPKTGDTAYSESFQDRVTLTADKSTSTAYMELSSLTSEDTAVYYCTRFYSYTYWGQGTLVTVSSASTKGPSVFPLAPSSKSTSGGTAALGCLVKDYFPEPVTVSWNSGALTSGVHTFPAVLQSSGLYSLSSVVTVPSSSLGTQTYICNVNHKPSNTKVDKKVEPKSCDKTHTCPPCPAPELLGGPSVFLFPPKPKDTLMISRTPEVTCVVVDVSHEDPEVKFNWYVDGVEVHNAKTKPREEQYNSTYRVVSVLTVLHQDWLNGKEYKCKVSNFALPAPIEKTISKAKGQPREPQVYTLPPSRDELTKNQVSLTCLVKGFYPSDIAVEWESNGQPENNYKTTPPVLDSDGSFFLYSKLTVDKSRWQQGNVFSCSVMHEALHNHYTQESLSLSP
light: B1 light
notes: also called Ho Ab K326_04F
B23: GpH7-B3 variant K326_06M/GpL16-k0 (antibody, human IgG1, kappa)
heavy: not shown
light: B1 light
notes: also called Ho Ab K326_06M
B24: GpH7-B3 variant K326_08L/GpL16-k0 (antibody, human IgG1, kappa)
heavy: not shown
light: B1 light
notes: also called Ho Ab K326_08L
B25: GpH7-B3 variant K326_09D/GpL16-k0 (antibody, human IgG1, kappa)
heavy: not shown
light: B1 light
notes: also called Ho Ab K326_09D
B26: GpH7-B3 variant K326_10E/GpL16-k0 (antibody, human IgG1, kappa)
heavy: not shown
light: B1 light
notes: also called Ho Ab K326_10E
B27: GpH7-B3 variant K326_14T/GpL16-k0 (antibody, human IgG1, kappa)
heavy: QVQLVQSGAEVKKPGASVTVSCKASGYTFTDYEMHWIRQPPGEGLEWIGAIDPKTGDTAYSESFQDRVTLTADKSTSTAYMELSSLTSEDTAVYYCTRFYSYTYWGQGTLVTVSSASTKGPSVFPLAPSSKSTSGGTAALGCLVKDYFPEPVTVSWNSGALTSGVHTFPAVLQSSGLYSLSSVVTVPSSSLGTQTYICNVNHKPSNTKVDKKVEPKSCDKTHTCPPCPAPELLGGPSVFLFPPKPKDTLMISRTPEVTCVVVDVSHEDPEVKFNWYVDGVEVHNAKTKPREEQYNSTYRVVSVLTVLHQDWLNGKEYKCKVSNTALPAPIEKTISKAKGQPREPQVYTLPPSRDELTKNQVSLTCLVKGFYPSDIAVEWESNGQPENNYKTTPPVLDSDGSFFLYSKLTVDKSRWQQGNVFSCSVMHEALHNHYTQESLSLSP
light: B1 light
notes: also called Ho Ab K326_14T
B28: GpH7-B3 variant K326_15Y/GpL16-k0 (antibody, human IgG1, kappa)
heavy: not shown
light: B1 light
notes: also called Ho Ab K326_15Y
B29: GpH7-B3 variant K326_16H/GpL16-k0 (antibody, human IgG1, kappa)
heavy: not shown
light: B1 light
notes: also called Ho Ab K326_16H
B30: GpH7-B3 variant K326_19Q/GpL16-k0 (antibody, human IgG1, kappa)
heavy: not shown
light: B1 light
notes: also called Ho Ab K326_19Q
B31: GpH7-A5/GpH7-B3 variant S324_09D/GpL16-k0 (antibody, human IgG1, kappa)
heavy 1: not shown
heavy 2: not shown
light: B1 light
notes: one H chain mutated; also called He Ab
B32: GpH7-A5/GpH7-B3 variant S324_10E/GpL16-k0 (antibody, human IgG1, kappa)
heavy 1: not shown
heavy 2: not shown
light: B1 light
notes: as for B31
B33: GpH7-A5/GpH7-B3 variant S324_20W/GpL16-k0 (antibody, human IgG1, kappa)
heavy 1: not shown
heavy 2: not shown
light: B1 light
notes: as for B31
B34: GpH7-A5/GpH7-B3 variant S337_09D/GpL16-k0 (antibody, human IgG1, kappa)
heavy 1: not shown
heavy 2: not shown
light: B1 light
notes: as for B31
B35: GpH7-A5/GpH7-B3 variant S337_10E/GpL16-k0 (antibody, human IgG1, kappa)
heavy 1: not shown
heavy 2: not shown
light: B1 light
notes: as for B31
B36: GpH7-A5/GpH7-B3 variant S337_14T/GpL16-k0 (antibody, human IgG1, kappa)
heavy 1: not shown
heavy 2: not shown
light: B1 light
notes: as for B31
B37: GpH7-A5/GpH7-B3 variant S337_16H/GpL16-k0 (antibody, human IgG1, kappa)
heavy 1: not shown
heavy 2: not shown
light: B1 light
notes: as for B31
B38: GpH7-A5/GpH7-B3 variant T335_01G/GpL16-k0 (antibody, human IgG1, kappa)
heavy 1: not shown
heavy 2: not shown
light: B1 light
notes: as for B31
B39: GpH7-A5/GpH7-B3 variant T335_07I/GpL16-k0 (antibody, human IgG1, kappa)
heavy 1: not shown
heavy 2: not shown
light: B1 light
notes: as for B31
B40: GpH7-A5/GpH7-B3 variant T335_10E/GpL16-k0 (antibody, human IgG1, kappa)
heavy 1: not shown
heavy 2: not shown
light: B1 light
notes: as for B31
B41: GpH7-A5/GpH7-B3 variant T335_13S/GpL16-k0 (antibody, human IgG1, kappa)
heavy 1: not shown
heavy 2: not shown
light: B1 light
notes: as for B31
B42: GpH7-A5/GpH7-B3 variant T335_15Y/GpL16-k0 (antibody, human IgG1, kappa)
heavy 1: not shown
heavy 2: not shown
light: B1 light
notes: as for B31
B43: GpH7-A5/GpH7-B3 variant T335_16H/GpL16-k0 (antibody, human IgG1, kappa)
heavy 1: not shown
heavy 2: not shown
light: B1 light
notes: as for B31
B44: GpH7-A5/GpH7-B3 variant T335_19Q/GpL16-k0 (antibody, human IgG1, kappa)
heavy 1: not shown
heavy 2: not shown
light: B1 light
notes: as for B31

Biological target: T1, FcγRIIb extracellular domain with …
Experiment: SPR, relative binding, HoCon Ab = 100
Protocol: (§1) Analysis of interaction between objective antibody and the FcγR was carried out using Biacore T100 (GE Healthcare). HBS-EP+ (GE Healthcare) was used as the running buffer, and the measurement temperature was set to 25° C. Chips produced by immobilizing the antigen peptide by the amine coupling method to a Series S Sencor Chip CM5 (GE Healthcare), or alternatively, chips produced by allowing preliminarily biotinylated antigen peptides to interact with and immobilize onto a Series S Sensor Chip SA (certified) (GE Healthcare) were used. Antibodies of interest were captured onto an antigen peptide-immobilized chip, and allowed to interact to each FcγR diluted with running buffer. To regenerate and repeatedly use the chip, the antibodies captured on the chip were washed off by reacting 10 mM glycine-HCl, pH 1.5.

Ho/Con_2b | Binder
170 % of control | B1
175 % of control | B2
148 % of control | B3
102 % of control | B4
207 % of control | B5
114 % of control | B6
140 % of control | B7
166 % of control | B8
158 % of control | B9
298 % of control | B10
275 % of control | B11
186 % of control | B12
179 % of control | B13
117 % of control | B14
106 % of control | B15
182 % of control | B16
181 % of control | B17
106 % of control | B18
109 % of control | B19
103 % of control | B20
184 % of control | B21
160 % of control | B22
193 % of control | B23
168 % of control | B24
240 % of control | B25
237 % of control | B26
177 % of control | B27
162 % of control | B28
131 % of control | B29
163 % of control | B30

Biological target: T2, FcγRIIa H (FcγRIIa type H, His at …)
Experiment: SPR Biacore, relative binding, GpH7-A5/GpH7-B3/GpL16-k0 (HeCon Ab)=100
Protocol: as §1

He/Con_2aH | Binder
106 % of control | B31
103 % of control | B32
103 % of control | B33
107 % of control | B34
102 % of control | B35
103 % of control | B36
101 % of control | B37
103 % of control | B38
108 % of control | B39
108 % of control | B40
106 % of control | B41
106 % of control | B42
105 % of control | B43
103 % of control | B44
